How the values were obtained:
[1] = test system: IDD (Arabidopsis thaliana); assay: EMSA; details: apparent; EMSA: 20 mM Tris-HCl pH 7.5, 1 mM DTT, 3 mM MgCl2, 50 mM NaCl, on ice 15 min; 0.1 ug RNA, 2% Tris-acetate agarose gel
[2] = test system: Co-86-608 (Arabidopsis thaliana); assay: EMSA; details: apparent; RNA taken as U1 snRNA; EMSA: 20 mM Tris-HCl pH 7.5, 1 mM DTT, 3 mM MgCl2, 50 mM NaCl, on ice 15 min; 0.1 ug RNA, 2% Tris-acetate agarose gel
[3] = test system: NOD-RK1 (Arabidopsis thaliana); assay: EMSA; details: apparent; EMSA: 20 mM Tris-HCl pH 7.5, 1 mM DTT, 3 mM MgCl2, 50 mM NaCl, on ice 15 min; 0.1 ug RNA, 2% Tris-acetate agarose gel
[4] = test system: IDD-212-350 (Arabidopsis thaliana); assay: EMSA; details: apparent; EMSA: 20 mM Tris-HCl pH 7.5, 1 mM DTT, 3 mM MgCl2, 50 mM NaCl, on ice 15 min; 0.1 ug RNA, 2% Tris-acetate agarose gel
[5] = test system: IDD-212-350-NLS2 (Arabidopsis thaliana); assay: EMSA; details: apparent; EMSA: 20 mM Tris-HCl pH 7.5, 1 mM DTT, 3 mM MgCl2, 50 mM NaCl, on ice 15 min; 0.1 ug RNA, 2% Tris-acetate agarose gel
[6] = test system: NOD (Arabidopsis thaliana); assay: EMSA; details: apparent; EMSA: 20 mM Tris-HCl pH 7.5, 1 mM DTT, 3 mM MgCl2, 50 mM NaCl, on ice 15 min; 0.1 ug RNA, 2% Tris-acetate agarose gel
[7] = test system: IDD-118-212 (Arabidopsis thaliana); assay: EMSA; details: apparent; EMSA: 20 mM Tris-HCl pH 7.5, 1 mM DTT, 3 mM MgCl2, 50 mM NaCl, on ice 15 min; 0.1 ug RNA, 2% Tris-acetate agarose gel
[8] = target: the molecule itself; assay: dynamic light scattering; protein at 0.05 mg/ml in 1 mM phosphate buffer pH 7.5, Zetasizer Nano ZS; free protein, and with U1 snRNA at a protein:RNA molar ratio of 5:1

U1 snRNA was tested, and the Kd [1] was 40 nM, the Kd [2] was 40 nM and the Kd [3] was 2250 nM. The Kd [4] was 60 nM, the Kd [5] was 480 nM and the Kd [6] was 760 nM. For the same molecule, the Kd [7] was 1420 nM.

B1: Arabidopsis thaliana coilin (Atcoilin), wild type (natural protein, UniProt Q8RWK8 1-608, looked up)
chain: MEEEKVRVRLVFEDRRILSKYQKKQGLTRSWVVLNRKCHRTISEFSDHIFHTFSLCEACPHGLSLSMEGFVLPPFESSCVLKDKDIVCVKKKKESLLEIVGEDSDENVYNAIEVEERPQIRPGEMLLANEEFQKETGGYESESEEDELEEEAEEFVPEKKASKKRKTSSKNQSTKRKKCKLDTTEESPDERENTAVVSNVVKKKKKKKSLDVQSANNDEQNNDSTKPMTKSKRSSQQEESKEHNDLCQLSAETKKTPSRSARRKKAKRQWLREKTKLEKEELLQTQLVVAPSQKPVITIDHQATKEKHCETLENQQAEEVSDGFGDEVVPVEVRPGHIRFKPLAGTDEASLDSEPLVENVLWNGNMTKKKGQKWGTEKSGFSKRYAQDFNEDATTQPAEAETLANCPIDYEQLVAYTGSVKKGDVIAYRLIELTSSWTPEVSSFRVGKISYYDPDSKMVTLMPVQEFPIEKKTEEDDDFCMQPDTSLYKEDGSLEIEFSALLDVRSVKTSSSDSAEVAKSALPEPDQSAKKPKLSANKELQTPAKENGEVSPWEELSEALSAKKAALSQANNGWNKKGSSSGGSWSYKALRGSAMGPVMNYLRSQKEI
notes: coilin of Arabidopsis thaliana, a 608-amino acid protein (NM_101173.4; GI:42562030); Cloned into the PQE30 vector; forms oligomers larger than a decamer in solution by DLS; also called wt coilin; wt Atcoilin; source: E. coli JM109, purified under denaturing conditions (Ni-NTA agarose), renatured by dialysis
With B1 the “stoichiometry N” value [8] was greater than 10.

B2: Atcoilin N-terminal ordered domain (NOD), residues 1-117 (domain or fragment, Arabidopsis thaliana, UniProt Q8RWK8 1-117, looked up)
chain: MEEEKVRVRLVFEDRRILSKYQKKQGLTRSWVVLNRKCHRTISEFSDHIFHTFSLCEACPHGLSLSMEGFVLPPFESSCVLKDKDIVCVKKKKESLLEIVGEDSDENVYNAIEVEER
notes: coilin of Arabidopsis thaliana (NM_101173.4; GI:42562030), NOD, 1-117 aa residues; also called N-terminal domain; source: E. coli JM109, purified under denaturing conditions (Ni-NTA agarose), renatured by dialysis
B2: binds [8].

Reference: article PMC3539977, “Plant Coilin: Structural Characteristics and RNA-Binding Properties” (PLoS ONE, 2013)
